How the values were obtained:
Experiment in all cases: IP/MS, LZTR1 R810W-FLAG, U87
HTT = HTT (human, UniProt P42858 1-3142)
Outline: (§1)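 Extracted peptides in 3% acetonitrile/0.1% formic acid ran on a 50 cm C18 column into an Orbitrap Fusion, with MaxQuant identification and spectral counting.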

ANKRD52 = biological target: T1, ANKRD52 (human, UniProt Q8NB46 1-1076)
T1 sequence (looked up): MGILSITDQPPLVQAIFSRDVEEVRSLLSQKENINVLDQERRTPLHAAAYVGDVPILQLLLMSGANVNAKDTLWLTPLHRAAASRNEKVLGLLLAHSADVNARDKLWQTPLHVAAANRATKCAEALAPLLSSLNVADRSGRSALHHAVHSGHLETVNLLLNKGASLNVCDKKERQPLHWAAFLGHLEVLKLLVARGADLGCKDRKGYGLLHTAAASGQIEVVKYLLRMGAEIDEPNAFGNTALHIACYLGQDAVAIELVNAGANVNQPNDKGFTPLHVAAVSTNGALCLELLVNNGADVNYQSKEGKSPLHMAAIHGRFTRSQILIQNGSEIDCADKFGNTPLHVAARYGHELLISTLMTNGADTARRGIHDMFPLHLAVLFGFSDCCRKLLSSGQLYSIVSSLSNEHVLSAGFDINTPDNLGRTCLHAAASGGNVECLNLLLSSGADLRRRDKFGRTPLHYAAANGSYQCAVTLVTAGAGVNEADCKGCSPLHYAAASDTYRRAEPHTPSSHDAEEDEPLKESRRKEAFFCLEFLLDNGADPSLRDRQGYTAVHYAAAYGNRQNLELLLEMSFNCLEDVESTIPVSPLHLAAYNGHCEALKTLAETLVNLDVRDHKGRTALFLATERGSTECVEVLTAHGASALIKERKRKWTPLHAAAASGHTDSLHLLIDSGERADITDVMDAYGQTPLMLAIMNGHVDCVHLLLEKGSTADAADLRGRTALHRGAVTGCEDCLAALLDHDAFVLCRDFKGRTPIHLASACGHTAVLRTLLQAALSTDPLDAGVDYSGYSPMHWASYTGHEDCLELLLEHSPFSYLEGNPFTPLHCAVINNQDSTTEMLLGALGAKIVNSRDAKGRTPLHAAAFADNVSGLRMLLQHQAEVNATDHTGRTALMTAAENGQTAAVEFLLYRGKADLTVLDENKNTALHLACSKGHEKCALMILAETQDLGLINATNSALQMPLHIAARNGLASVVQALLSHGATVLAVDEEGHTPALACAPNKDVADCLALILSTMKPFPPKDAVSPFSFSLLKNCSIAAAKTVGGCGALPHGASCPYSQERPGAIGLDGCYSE
Outline: as §1

HELZ = HELZ (human, UniProt P42694 1-1942, limits assumed)
Outline: as §1

PTPN23 = PTPN23 (human, UniProt Q9H3S7 1-1636)
Outline: as §1

CDK5RAP2 = CDK5RAP2 (human, UniProt Q96SN8 1-1893, limits assumed)
Outline: as §1

USP4 = biological target: T2, USP4 (human, UniProt Q13107 1-963, limits assumed)
T2 sequence (looked up): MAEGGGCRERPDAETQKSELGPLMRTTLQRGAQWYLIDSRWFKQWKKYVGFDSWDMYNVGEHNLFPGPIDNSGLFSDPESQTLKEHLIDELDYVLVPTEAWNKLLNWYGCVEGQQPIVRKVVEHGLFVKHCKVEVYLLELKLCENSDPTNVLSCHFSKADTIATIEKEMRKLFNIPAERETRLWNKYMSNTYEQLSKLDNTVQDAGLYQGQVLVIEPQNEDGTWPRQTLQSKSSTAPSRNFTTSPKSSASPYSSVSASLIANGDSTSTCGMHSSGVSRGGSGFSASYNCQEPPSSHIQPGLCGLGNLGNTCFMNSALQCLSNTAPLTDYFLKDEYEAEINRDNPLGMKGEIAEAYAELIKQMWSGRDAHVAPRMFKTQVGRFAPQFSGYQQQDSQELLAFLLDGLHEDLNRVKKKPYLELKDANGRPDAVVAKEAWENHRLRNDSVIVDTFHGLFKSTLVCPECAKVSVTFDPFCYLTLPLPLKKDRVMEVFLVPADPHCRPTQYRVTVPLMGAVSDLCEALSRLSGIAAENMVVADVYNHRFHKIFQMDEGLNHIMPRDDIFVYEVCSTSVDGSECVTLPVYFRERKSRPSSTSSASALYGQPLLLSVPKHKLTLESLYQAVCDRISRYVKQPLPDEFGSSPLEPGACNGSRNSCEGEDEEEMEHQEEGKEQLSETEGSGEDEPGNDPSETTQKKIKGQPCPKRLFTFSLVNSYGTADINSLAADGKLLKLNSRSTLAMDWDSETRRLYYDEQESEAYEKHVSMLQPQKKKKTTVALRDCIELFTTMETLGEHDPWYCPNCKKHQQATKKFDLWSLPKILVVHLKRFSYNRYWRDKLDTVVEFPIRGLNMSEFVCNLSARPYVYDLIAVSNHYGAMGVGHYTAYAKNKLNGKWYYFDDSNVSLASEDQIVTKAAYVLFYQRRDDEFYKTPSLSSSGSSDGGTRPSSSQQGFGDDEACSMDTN
Outline: as §1

Measured: binding result

Chain of HTT (P42858 whole entry, the tested form may be a part): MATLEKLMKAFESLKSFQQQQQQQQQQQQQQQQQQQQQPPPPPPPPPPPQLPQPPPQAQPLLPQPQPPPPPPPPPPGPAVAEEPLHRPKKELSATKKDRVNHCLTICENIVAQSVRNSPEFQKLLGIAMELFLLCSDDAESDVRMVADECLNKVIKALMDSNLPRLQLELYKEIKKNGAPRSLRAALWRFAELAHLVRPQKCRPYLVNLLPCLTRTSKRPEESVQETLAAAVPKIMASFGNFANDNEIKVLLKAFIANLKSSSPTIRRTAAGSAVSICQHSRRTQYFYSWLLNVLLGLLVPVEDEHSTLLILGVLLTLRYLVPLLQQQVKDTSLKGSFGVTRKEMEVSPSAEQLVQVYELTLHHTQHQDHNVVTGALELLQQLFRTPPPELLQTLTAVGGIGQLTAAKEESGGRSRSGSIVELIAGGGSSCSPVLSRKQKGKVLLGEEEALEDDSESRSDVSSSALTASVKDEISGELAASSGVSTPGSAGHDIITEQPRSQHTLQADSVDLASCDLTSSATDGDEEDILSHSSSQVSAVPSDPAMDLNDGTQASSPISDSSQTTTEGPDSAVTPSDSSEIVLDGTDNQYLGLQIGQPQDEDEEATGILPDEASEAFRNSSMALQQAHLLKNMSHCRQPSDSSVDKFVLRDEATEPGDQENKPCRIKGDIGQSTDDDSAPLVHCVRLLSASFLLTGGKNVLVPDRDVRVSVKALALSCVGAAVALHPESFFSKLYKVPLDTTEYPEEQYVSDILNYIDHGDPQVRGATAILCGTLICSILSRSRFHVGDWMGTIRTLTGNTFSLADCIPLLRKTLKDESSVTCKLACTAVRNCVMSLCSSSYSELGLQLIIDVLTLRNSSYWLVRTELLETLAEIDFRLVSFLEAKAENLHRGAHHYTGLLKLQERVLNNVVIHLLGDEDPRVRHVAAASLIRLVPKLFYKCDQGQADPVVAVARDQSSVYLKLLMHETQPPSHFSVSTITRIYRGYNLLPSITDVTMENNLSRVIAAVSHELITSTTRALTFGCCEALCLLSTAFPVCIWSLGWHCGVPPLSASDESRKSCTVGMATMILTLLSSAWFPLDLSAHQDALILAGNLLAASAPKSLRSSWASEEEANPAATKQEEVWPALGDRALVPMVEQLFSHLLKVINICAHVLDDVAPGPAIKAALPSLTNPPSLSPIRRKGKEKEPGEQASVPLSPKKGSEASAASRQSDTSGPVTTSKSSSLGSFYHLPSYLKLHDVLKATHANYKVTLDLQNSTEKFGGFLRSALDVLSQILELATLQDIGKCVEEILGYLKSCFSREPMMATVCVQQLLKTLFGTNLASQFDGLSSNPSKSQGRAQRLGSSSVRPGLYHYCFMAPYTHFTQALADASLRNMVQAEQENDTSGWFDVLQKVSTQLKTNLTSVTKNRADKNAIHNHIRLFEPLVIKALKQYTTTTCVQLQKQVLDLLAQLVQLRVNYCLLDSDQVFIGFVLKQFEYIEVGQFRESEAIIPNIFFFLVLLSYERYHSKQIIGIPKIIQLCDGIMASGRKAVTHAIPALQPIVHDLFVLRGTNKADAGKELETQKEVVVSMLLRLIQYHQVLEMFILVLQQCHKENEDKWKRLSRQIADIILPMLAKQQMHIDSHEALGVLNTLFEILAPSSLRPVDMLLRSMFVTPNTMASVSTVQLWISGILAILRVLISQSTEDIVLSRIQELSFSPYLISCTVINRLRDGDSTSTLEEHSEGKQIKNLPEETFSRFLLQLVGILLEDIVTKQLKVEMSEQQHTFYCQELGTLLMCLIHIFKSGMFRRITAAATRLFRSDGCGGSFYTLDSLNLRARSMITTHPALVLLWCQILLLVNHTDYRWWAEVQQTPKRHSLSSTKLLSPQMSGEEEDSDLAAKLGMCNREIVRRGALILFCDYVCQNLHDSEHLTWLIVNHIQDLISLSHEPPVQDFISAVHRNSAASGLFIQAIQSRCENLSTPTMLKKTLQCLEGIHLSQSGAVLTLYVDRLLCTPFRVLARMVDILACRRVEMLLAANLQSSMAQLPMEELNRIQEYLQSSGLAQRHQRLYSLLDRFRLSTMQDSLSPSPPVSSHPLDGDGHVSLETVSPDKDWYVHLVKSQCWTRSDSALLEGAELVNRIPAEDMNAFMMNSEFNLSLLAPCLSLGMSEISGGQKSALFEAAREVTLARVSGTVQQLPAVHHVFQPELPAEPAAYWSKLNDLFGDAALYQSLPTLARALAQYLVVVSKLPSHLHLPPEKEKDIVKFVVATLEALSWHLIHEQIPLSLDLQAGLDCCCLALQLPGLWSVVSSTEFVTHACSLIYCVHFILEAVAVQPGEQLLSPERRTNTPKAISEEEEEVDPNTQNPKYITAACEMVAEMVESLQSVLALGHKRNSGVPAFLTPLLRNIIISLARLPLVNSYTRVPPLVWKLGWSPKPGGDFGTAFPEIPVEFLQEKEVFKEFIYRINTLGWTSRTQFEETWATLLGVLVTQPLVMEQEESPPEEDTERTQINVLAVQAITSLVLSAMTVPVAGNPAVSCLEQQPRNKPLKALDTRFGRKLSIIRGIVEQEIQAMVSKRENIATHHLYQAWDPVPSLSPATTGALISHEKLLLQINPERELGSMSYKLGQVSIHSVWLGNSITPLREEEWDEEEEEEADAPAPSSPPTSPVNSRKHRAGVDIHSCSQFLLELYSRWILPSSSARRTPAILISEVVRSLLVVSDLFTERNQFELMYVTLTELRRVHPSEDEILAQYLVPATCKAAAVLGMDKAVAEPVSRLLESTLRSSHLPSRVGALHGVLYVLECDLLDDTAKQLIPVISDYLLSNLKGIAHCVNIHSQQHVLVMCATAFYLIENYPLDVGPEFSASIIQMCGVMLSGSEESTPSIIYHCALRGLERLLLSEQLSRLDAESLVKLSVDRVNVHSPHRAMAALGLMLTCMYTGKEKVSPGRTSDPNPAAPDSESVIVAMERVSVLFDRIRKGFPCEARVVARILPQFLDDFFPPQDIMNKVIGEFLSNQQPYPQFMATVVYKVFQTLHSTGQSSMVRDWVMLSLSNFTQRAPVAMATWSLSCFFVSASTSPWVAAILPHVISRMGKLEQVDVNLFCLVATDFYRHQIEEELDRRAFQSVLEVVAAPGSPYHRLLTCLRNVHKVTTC
Chain of HELZ (P42694 whole entry): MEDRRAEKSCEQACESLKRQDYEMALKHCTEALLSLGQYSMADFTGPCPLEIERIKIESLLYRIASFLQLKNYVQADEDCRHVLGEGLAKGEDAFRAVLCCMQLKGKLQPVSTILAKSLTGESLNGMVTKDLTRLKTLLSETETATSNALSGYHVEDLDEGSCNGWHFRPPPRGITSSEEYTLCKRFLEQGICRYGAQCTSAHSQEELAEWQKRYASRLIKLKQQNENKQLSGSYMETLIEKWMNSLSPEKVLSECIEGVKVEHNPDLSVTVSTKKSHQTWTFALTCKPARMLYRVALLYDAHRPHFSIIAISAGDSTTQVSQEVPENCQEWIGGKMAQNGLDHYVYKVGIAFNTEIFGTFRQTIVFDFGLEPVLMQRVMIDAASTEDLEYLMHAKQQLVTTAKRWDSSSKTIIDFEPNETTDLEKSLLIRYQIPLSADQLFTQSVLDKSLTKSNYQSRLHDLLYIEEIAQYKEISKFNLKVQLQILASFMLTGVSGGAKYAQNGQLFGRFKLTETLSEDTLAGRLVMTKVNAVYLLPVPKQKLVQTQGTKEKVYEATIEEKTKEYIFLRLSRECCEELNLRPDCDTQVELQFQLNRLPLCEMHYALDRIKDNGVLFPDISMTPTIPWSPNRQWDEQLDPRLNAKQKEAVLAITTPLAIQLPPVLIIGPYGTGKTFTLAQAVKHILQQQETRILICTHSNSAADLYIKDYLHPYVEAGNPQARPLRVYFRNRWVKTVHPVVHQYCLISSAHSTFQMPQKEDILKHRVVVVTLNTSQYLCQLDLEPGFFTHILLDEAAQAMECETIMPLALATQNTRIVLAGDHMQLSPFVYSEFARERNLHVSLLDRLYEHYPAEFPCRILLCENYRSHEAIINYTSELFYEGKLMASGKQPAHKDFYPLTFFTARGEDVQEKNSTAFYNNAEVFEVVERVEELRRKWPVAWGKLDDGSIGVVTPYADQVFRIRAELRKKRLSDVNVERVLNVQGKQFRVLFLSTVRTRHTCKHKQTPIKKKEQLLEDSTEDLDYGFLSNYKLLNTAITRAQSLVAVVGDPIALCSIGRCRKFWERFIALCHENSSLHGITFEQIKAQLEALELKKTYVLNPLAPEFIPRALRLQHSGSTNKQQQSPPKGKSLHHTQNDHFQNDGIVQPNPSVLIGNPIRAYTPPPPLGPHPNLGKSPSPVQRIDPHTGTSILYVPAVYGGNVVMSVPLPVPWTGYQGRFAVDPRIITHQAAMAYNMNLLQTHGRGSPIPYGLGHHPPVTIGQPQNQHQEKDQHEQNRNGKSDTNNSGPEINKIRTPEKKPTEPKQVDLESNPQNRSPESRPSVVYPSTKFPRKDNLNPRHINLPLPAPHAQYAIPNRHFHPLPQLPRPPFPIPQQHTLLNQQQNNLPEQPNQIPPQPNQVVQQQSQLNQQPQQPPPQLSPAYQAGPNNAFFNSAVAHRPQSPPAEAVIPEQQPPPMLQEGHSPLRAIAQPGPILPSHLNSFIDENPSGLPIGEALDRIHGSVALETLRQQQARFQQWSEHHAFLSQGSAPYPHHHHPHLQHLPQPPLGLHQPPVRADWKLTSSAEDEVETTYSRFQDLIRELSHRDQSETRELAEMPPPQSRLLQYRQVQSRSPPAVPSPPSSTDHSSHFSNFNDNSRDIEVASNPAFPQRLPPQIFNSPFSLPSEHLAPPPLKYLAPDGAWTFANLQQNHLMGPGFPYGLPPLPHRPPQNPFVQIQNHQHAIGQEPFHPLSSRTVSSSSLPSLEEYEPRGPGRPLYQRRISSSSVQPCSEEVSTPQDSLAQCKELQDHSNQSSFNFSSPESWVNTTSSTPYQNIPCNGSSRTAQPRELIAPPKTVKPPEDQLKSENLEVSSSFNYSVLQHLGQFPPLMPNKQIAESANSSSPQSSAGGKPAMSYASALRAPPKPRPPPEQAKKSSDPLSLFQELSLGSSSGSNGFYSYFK

B1: LZTR1 R810W-FLAG (other, human, UniProt Q8N653 1-840, looked up)
chain: MAGPGSTGGQIGAAALAGGARSKVAPSVDFDHSCSDSVEYLTLNFGPFETVHRWRRLPPCDEFVGARRSKHTVVAYKDAIYVFGGDNGKTMLNDLLRFDVKDCSWCRAFTTGTPPAPRYHHSAVVYGSSMFVFGGYTGDIYSNSNLKNKNDLFEYKFATGQWTEWKIEGRLPVARSAHGATVYSDKLWIFAGYDGNARLNDMWTIGLQDRELTCWEEVAQSGEIPPSCCNFPVAVCRDKMFVFSGQSGAKITNNLFQFEFKDKTWTRIPTEHLLRGSPPPPQRRYGHTMVAFDRHLYVFGGAADNTLPNELHCYDVDFQTWEVVQPSSDSEVGGAEVPERACASEEVPTLTYEERVGFKKSRDVFGLDFGTTSAKQPTQPASELPSGRLFHAAAVISDAMYIFGGTVDNNIRSGEMYRFQFSCYPKCTLHEDYGRLWESRQFCDVEFVLGEKEECVQGHVAIVTARSRWLRRKITQARERLAQKLEQEAAPVPREAPGVAAGGARPPLLHVAIREAEARPFEVLMQFLYTDKIKYPRKGHVEDVLLIMDVYKLALSFQLCRLEQLCRQYIEASVDLQNVLVVCESAARLQLSQLKEHCLNFVVKESHFNQVIMMKEFERLSSPLIVEIVRRKQQPPPRTPLDQPVDIGTSLIQDMKAYLEGAGAEFCDITLLLDGHPRPAHKAILAARSSYFEAMFRSFMPEDGQVNISIGEMVPSRQAFESMLRYIYYGEVNMPPEDSLYLFAAPYYYGFYNNRLQAYCKQNLEMNVTVQNVLQILEAADKTQALDMKRHCLHIIVHQFTKVSKLPTLWSLSQQLLLDIIDSLASHISDKQCAELGADI
notes: Stably expressed in U87 cells by lentivirus; also called LZTR1-FLAG-R810W; LZTR1 RW; not shown: FLAG tag
binds: HTT | ANKRD52 | HELZ | PTPN23 | CDK5RAP2 | USP4

— patent US20250262210A1 (TRUSTEES OF COLUMBIA UNIVERSITY IN THE CITY OF NEW YORK, published 2025)
